For this assay, the target named is git1_human GIT1 (UniProt Q9Y2X7).
git1_human GIT1, sequence (Q9Y2X7 whole entry): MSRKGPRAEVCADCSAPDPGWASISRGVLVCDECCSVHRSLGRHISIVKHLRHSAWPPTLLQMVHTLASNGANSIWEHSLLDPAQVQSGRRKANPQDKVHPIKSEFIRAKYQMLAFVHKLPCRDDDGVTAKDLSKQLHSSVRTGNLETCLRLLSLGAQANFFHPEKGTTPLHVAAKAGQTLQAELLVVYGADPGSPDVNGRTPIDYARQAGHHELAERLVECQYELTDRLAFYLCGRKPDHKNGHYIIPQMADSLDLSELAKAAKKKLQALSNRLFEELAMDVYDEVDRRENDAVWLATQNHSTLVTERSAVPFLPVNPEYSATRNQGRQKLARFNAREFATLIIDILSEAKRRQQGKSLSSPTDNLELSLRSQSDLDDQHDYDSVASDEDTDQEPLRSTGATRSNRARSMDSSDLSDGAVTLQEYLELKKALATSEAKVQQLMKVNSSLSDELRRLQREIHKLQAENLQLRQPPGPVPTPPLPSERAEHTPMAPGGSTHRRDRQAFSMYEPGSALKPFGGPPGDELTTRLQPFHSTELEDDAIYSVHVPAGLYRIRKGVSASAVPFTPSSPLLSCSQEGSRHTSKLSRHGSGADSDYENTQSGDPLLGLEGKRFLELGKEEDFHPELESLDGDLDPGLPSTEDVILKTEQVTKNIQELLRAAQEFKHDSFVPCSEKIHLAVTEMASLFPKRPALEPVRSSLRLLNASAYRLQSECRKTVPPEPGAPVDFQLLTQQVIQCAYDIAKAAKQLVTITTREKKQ

Paxillin (Gallus gallus (Chicken)), P49024 S273A, sequence (P49024 whole entry S273A): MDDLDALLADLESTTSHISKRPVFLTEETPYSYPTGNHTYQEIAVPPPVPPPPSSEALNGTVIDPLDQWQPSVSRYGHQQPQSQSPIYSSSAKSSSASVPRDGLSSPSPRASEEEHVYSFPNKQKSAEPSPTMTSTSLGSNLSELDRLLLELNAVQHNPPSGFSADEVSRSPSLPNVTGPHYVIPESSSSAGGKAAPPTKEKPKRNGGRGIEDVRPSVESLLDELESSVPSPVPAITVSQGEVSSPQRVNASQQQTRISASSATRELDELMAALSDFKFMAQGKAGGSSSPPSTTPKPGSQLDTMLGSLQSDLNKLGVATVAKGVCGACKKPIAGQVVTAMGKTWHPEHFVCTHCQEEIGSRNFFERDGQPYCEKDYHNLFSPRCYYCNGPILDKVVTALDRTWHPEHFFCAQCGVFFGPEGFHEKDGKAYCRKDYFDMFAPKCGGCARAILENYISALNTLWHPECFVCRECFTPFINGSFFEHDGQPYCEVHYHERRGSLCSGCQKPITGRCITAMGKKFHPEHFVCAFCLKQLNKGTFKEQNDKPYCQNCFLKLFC
Paxillin (Gallus gallus (Chicken)), P49024 S273D, sequence (P49024 whole entry S273D): as the sequence (P49024 whole entry S273A) above, with A273D counted along it

On to “Paxillin (Gallus gallus (Chicken)), P49024 S273D”, for which the “effect of a mutation on the interaction” value is recorded as “increasing interaction”.
In the case of “Paxillin (Gallus gallus (Chicken)), P49024 S273A” it was “decreasing interaction”.

The values are drawn from IntAct's records for PubMed 16717130.
